± gives the standard deviation of the averaged measurements.
Experiment: total protein half-life in vivo (active degradation + dilution); higher = more stable protein
[1] = E. coli NCM3722 delta-clpP delta-lon delta-hslV, growth: N-lim chemostat, doubling time 6 h
[2] = E. coli NCM3722 delta-clpP, growth: N-lim chemostat, doubling time 6 h
[3] = E. coli NCM3722 delta-hslV, growth: N-lim chemostat, doubling time 6 h
[4] = E. coli NCM3722 delta-lon, growth: N-lim chemostat, doubling time 6 h
[5] = E. coli NCM3722 delta-smpB, growth: N-lim chemostat, doubling time 6 h
[6] = wild type E. coli NCM3722, growth: C-lim chemostat, doubling time 3 h
[7] = wild type E. coli NCM3722, growth: C-lim chemostat, doubling time 12 h
[8] = wild type E. coli NCM3722, growth: N-lim chemostat, doubling time 6 h
[9] = wild type E. coli NCM3722, growth: N-lim chemostat, doubling time 12 h
[10] = wild type E. coli NCM3722, growth: P-lim chemostat, doubling time 6 h
[11] = wild type E. coli NCM3722, growth: P-lim chemostat, doubling time 12 h
[12] = wild type E. coli NCM3722, growth: C-lim chemostat, doubling time 6 h

MERLKRMSVFAKVVEFGSFTAAARQLQMSVSSISQTVSKLEDELQVKLLNRSTRSIGLTEAGRIYYQGCRRMLHEVQDVHEQLYAFNNTPIGTLRIGCSSTMAQNVLAGLTAKMLKEYPGLSVNLVTGIPAPDLIADGLDVVIRVGALQDSSLFSRRLGAMPMVVCAAKSYLTQYGIPEKPADLSSHSWLEYSVRPDNEFELIAPEGISTRLIPQGRFVTNDPMTLVRWLTAGAGIAYVPLMWVINEINRGELEILLPRYQSDPRPVYALYTEKDKLPLKVQVVINSLTDYFVEVGKLFQEMHGRGKEK
total protein half-life in vivo [1]: 5.96 ± 0.4 h | total protein half-life in vivo [2]: 5.9 ± 0.28 h | total protein half-life in vivo [3]: 6.51 ± 0.75 h | total protein half-life in vivo [4]: 6.27 ± 0.31 h | total protein half-life in vivo [5]: 6.03 ± 0.19 h | total protein half-life in vivo [6]: 3.47 ± 0.21 h | total protein half-life in vivo [7]: 11 ± 0.14 h | total protein half-life in vivo [8]: 5.69 ± 0.44 h | total protein half-life in vivo [9]: 13.9 ± 0.74 h | total protein half-life in vivo [10]: 5.75 ± 0.69 h | total protein half-life in vivo [11]: 12.7 ± 0.32 h

MERNKLARQIIDTCLEMTRLGLNQGTAGNVSVRYQDGMLITPTGIPYEKLTESHIVFIDGNGKHEEGKLPSSEWRFHMAAYQSRPDANAVVHNHAVHCTAVSILNRSIPAIHYMIAAAGGNSIPCAPYATFGTRELSEHVALALKNRKATLLQHHGLIACEVNLEKALWLAHEVEVLAQLYLTTLAITDPVPVLSDEEIAVVLEKFKTYGLRIEE [P0AB87]
total protein half-life in vivo [6]: 2.81 ± 0.01 h | total protein half-life in vivo [12]: 4.78 ± 0.5 h | total protein half-life in vivo [7]: 7.71 ± 0.3 h

MERVSITERPDWREKAHEYGFNFHTMYGEPYWCEDAYYKLTLAQVEKLEEVTAELHQMCLKVVEKVIASDELMTKFRIPKHTWSFVRQSWLTHQPSLYSRLDLAWDGTGEPKLLENNADTPTSLYEAAFFQWIWLEDQLNAGNLPEGSDQFNSLQEKLIDRFVELREQYGFQLLHLTCCRDTVEDRGTIQYLQDCATEAEIATEFLYIDDIGLGEKGQFTDLQDQVISNLFKLYPWEFMLREMFSTKLEDAGVRWLEPAWKSIISNKALLPLLWEMFPNHPNLLPAYFAEDDHPQMEKYVVKPIFSREGANVSIIENGKTIEAAEGPYGEEGMIVQQFHPLPKFGDSYMLIGSWLVNDQPAGIGIREDRALITQDMSRFYPHIFVE [P0ADT5]
total protein half-life in vivo [2]: 4.7 ± 0.6 h | total protein half-life in vivo [3]: 4.25 ± 0.46 h | total protein half-life in vivo [4]: 4.93 ± 0.34 h | total protein half-life in vivo [5]: 4.3 ± 0.17 h | total protein half-life in vivo [6]: 3.13 ± 0.18 h | total protein half-life in vivo [12]: 5.78 ± 1 h | total protein half-life in vivo [7]: 9.63 ± 0.61 h | total protein half-life in vivo [8]: 4.46 ± 0.15 h | total protein half-life in vivo [9]: 8.2 ± 1 h | total protein half-life in vivo [10]: 5.65 ± 0.24 h | total protein half-life in vivo [11]: 11.5 ± 0.2 h

MERVYRTDLKLLRYFLAVAEELHFGRAAARLNMSQPPLSIHIKELENQLGTQLFIRHSRSVVLTHAGKILMEESRRLLVNANNVLARIEQIGRGEAGRIELGVVGTAMWGRMRPVMRRFLRENPNVDVLFREKMPAMQMALLERRELDAGIWRMATEPPTGFTSLRLHESAFLVAMPEEHHLSSFSTVPLEALRDEYFVTMPPVYTDWDFLQRVCQQVGFSPVVIREVNEPQTVLAMVSMGIGITLIADSYAQMNWPGVIFRPLKQRIPADLYIVYETQQVTPAMVKLLAALTQ
total protein half-life in vivo [2]: 3.26 ± 0.21 h | total protein half-life in vivo [3]: 3.03 h | total protein half-life in vivo [8]: 3.31 h | total protein half-life in vivo [9]: 5.46 h

MESGHRFDAQTLHSFIQAVFRQMGSEEQEAKLVADHLIAANLAGHDSHGIGMIPSYVRSWSQGHLQINHHAKTVKEAGAAVTLDGDRAFGQVAAHEAMALGIEKAHQHGIAAVALHNSHHIGRIGYWAEQCAAAGFVSIHFVSVVGIPMVAPFHGRDSRFGTNPFCVVFPRKDNFPLLLDYATSAIAFGKTRVAWHKGVPVPPGCLIDVNGVPTTNPAVMQESPLGSLLTFAEHKGYALAAMCEILGGALSGGKTTHQETLQTSPDAILNCMTTIIINPELFGAPDCNAQTEAFAEWVKASPHDDDKPILLPGEWEVNTRRERQKQGIPLDAGSWQAICDAARQIGMPEETLQAFCQQLAS
total protein half-life in vivo [1]: 4.97 ± 0.25 h | total protein half-life in vivo [2]: 3.99 ± 0.17 h | total protein half-life in vivo [3]: 4.28 ± 0.11 h | total protein half-life in vivo [5]: 4.214 ± 0.024 h | total protein half-life in vivo [6]: 3.14 ± 0.059 h | total protein half-life in vivo [12]: 5.02 ± 0.63 h | total protein half-life in vivo [7]: 8.45 ± 0.26 h | total protein half-life in vivo [8]: 4.46 ± 0.42 h | total protein half-life in vivo [9]: 7.26 ± 1.5 h | total protein half-life in vivo [10]: 5.58 ± 0.14 h | total protein half-life in vivo [11]: 10.3 ± 1.2 h

MESLASLYKNHIATLQERTRDALARFKLDALLIHSGELFNVFLDDHPYPFKVNPQFKAWVPVTQVPNCWLLVDGVNKPKLWFYLPVDYWHNVEPLPTSFWTEDVEVIALPKADGIGSLLPAARGNIGYIGPVPERALQLGIEASNINPKGVIDYLHYYRSFKTEYELACMREAQKMAVNGHRAAEEAFRSGMSEFDINIAYLTATGHRDTDVPYSNIVALNEHAAVLHYTKLDHQAPEEMRSFLLDAGAEYNGYAADLTRTWSAKSDNDYAQLVKDVNDEQLALIATMKAGVSYVDYHIQFHQRIAKLLRKHQIITDMSEEAMVENDLTGPFMPHGIGHPLGLQVHDVAGFMQDDSGTHLAAPAKYPYLRCTRILQPGMVLTIEPGIYFIESLLAPWREGQFSKHFNWQKIEALKPFGGIRIEDNVVIHENNVENMTRDLKLA
total protein half-life in vivo [1]: 5.4 ± 0.69 h | total protein half-life in vivo [2]: 4.93 ± 0.32 h | total protein half-life in vivo [3]: 5.12 ± 0.4 h | total protein half-life in vivo [4]: 5.92 ± 0.92 h | total protein half-life in vivo [5]: 4.33 ± 0.059 h | total protein half-life in vivo [6]: 3.21 ± 0.37 h | total protein half-life in vivo [12]: 5.72 ± 0.084 h | total protein half-life in vivo [7]: 10.2 ± 1.3 h | total protein half-life in vivo [8]: 4.77 ± 0.23 h | total protein half-life in vivo [9]: 8.64 ± 0.18 h | total protein half-life in vivo [10]: 6.13 ± 0.18 h | total protein half-life in vivo [11]: 11.9 ± 0.27 h

MESLTLQPIARVDGTINLPGSKSVSNRALLLAALAHGKTVLTNLLDSDDVRHMLNALTALGVSYTLSADRTRCEIIGNGGPLHAEGALELFLGNAGTAMRPLAAALCLGSNDIVLTGEPRMKERPIGHLVDALRLGGAKITYLEQENYPPLRLQGGFTGGNVDVDGSVSSQFLTALLMTAPLAPEDTVIRIKGDLVSKPYIDITLNLMKTFGVEIENQHYQQFVVKGGQSYQSPGTYLVEGDASSASYFLAAAAIKGGTVKVTGIGRNSMQGDIRFADVLEKMGATICWGDDYISCTRGELNAIDMDMNHIPDAAMTIATAALFAKGTTTLRNIYNWRVKETDRLFAMATELRKVGAEVEEGHDYIRITPPEKLNFAEIATYNDHRMAMCFSLVALSDTPVTILDPKCTAKTFPDYFEQLARISQAA [P0A6D3]
total protein half-life in vivo [1]: 5.15 ± 0.18 h | total protein half-life in vivo [2]: 5.52 ± 1.1 h | total protein half-life in vivo [3]: 4.53 ± 0.15 h | total protein half-life in vivo [4]: 5.22 ± 0.56 h | total protein half-life in vivo [5]: 4.53 ± 0.049 h | total protein half-life in vivo [6]: 3.1 ± 0.1 h | total protein half-life in vivo [12]: 5.96 ± 0.62 h | total protein half-life in vivo [7]: 11.3 ± 0.63 h | total protein half-life in vivo [8]: 4.45 ± 0.31 h | total protein half-life in vivo [9]: 7.534 ± 0.05 h | total protein half-life in vivo [10]: 5.98 ± 0.078 h | total protein half-life in vivo [11]: 12.1 ± 1.5 h
